Here are results for four substances from patent US20120128758A1.

Test [1] addresses TND-669S HIV-1 envelope (HIV-1). Nature of the test: cell-based or functional assay.
Test [2] deals with TND-669L HIV-1 envelope (HIV-1). Nature of the test: cell-based or functional assay.
Test [3] concerns the target SP62 (gp41 652-671)-GTH1 peptide anchored to liposomes. The test can be described thus: SPR on peptide-liposomes, encounter-docking (two-step) model, dissociation of the encounter step; row '2F5 peptide liposome'.
Test [4] deals with SP62-L669S (gp41 652-671)-GTH1 peptide anchored to liposomes. The test can be described thus: SPR on peptide-liposomes, encounter-docking (two-step) model, reverse rate of the docking step; row 'L669S 2F5 peptide liposome'.
Test [5] shares this target. Nature of the test: SPR on peptide-liposomes, encounter-docking (two-step) model, forward rate of the docking step; row 'L669S 2F5 peptide liposome'.
Test [6] concerns the target SP62 (gp41 652-671)-GTH1 peptide anchored to liposomes. Nature of the test: SPR on peptide-liposomes, encounter-docking (two-step) model, reverse rate of the docking step; row '2F5 peptide liposome'.
The target is the same in test [7]. Nature of the test: SPR, peptide anchored to phospholipid liposomes.
The target of test [8] is SP62-L669S (gp41 652-671)-GTH1 peptide anchored to liposomes. Nature of the test: SPR, peptide anchored to phospholipid liposomes.
Test [9] concerns the target SP62 (gp41 652-671)-GTH1 peptide anchored to liposomes. Nature of the test: SPR on peptide-liposomes, encounter-docking (two-step) model, forward rate of the docking step; row '2F5 peptide liposome'.
The target of test [10] is SP62-L669S (gp41 652-671)-GTH1 peptide anchored to liposomes. The test can be described thus: SPR on peptide-liposomes, encounter-docking (two-step) model, association of the encounter step; row 'L669S 2F5 peptide liposome'.
Test [11] concerns the target SP62 (gp41 652-671)-GTH1 peptide anchored to liposomes. The test can be described thus: SPR on peptide-liposomes, encounter-docking (two-step) model, association of the encounter step; row '2F5 peptide liposome'.
For test [12], the target named is SP62-L669S (gp41 652-671)-GTH1 peptide anchored to liposomes. The test can be described thus: SPR on peptide-liposomes, encounter-docking (two-step) model, dissociation of the encounter step; row 'L669S 2F5 peptide liposome'.

Regarding mAb 17b (antibody), the increase in neutralization sensitivity against TND-669L in [1] turned out to be 2 fold.

As for mAb 2F5 (antibody), the values for the mean IC50, neutralisation of Env-pseudovirus on JC53-BL cells in [2] and in [1] were 3.92 µg/mL and 0.014 µg/mL, respectively. Besides, the kd1 in [3] stood at 0.00692 s⁻¹; in test [12], 0.00119 s⁻¹. Further, the kd2 in test [4] was determined as 2e-05 s⁻¹; in [6], 0.00037 s⁻¹. The results for the ka2 in [5] and in test [9] were 0.0054 s⁻¹ and 0.0181 s⁻¹, respectively. Moreover, in test [7], the response unit at 10 seconds after the injection was stopped came out at 495 RU. Moreover, the response unit (background subtracted) at 10 seconds after the injection was stopped in test [8] was determined as 617 RU. Also, the ka1 in test [10] worked out at 498000 M⁻¹ s⁻¹; in test [11], 931000 M⁻¹ s⁻¹.

Turning to mAb 447-52D (antibody), in test [1], the enhancement of neutralization sensitivity against TND-669L was greater than 161 fold and the neutralization of Env-pseudovirus, IC50 stood at 0.31 µg/mL.

mAb 4E10 (antibody) registered a mean IC50, neutralisation of Env-pseudovirus on JC53-BL cells in [2] of 8.49 µg/mL. Also, in test [1], the fold lower neutralisation IC50 against TND-669S than against TND-669L came to 275 fold and the mean IC50, neutralisation of Env-pseudovirus on JC53-BL cells was 0.031 µg/mL.
